For test [1], the target named is T1, human GPC3 on HepG2 cells (human, UniProt P51654 25-554).
T1 construct: whole, on cells
The experiment in a line: FACS, periplasmic extract 1:5 + anti-c-myc + GAM-APC on HepG2, well B4; same on A-431: 873.16.

Test [2] has as its target T1, human GPC3 on HepG2 cells. The experiment in a line: FACS, periplasmic extract 1:5 + anti-c-myc + GAM-APC on HepG2, well B4; same on A-431: 0.54%.
Test [3] concerns the target T1, human GPC3 on HepG2 cells. The experiment in a line: FACS, phage-displayed clone on HepG2, well B4; same clone on A-431 (no GPC3): 1095.02.
In test [4] the target is T1, human GPC3 on HepG2 cells. The experiment in a line: FACS, phage-displayed clone on HepG2, well B4; same clone on A-431 (no GPC3): 1.12%.
The target in test [5] is T2, human GPC3 recombinant protein (human, UniProt P51654 25-559).
T2 construct: also called huGPC3; Human GPC3 protein
T2 sequence (P51654 25-559 limits assumed): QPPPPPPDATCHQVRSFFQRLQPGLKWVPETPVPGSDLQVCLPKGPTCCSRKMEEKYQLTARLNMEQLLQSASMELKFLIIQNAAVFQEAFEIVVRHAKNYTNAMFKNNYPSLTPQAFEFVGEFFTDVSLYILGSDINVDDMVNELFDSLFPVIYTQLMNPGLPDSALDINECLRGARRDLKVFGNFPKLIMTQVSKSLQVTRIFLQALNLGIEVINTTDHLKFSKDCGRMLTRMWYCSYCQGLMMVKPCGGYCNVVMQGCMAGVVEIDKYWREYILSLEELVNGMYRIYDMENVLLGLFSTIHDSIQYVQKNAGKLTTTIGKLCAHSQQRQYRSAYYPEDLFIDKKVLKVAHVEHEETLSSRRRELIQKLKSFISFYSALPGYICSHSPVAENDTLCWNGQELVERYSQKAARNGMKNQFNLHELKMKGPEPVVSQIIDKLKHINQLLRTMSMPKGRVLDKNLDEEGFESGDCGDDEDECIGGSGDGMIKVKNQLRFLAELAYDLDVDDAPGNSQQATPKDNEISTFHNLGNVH
The test can be described thus: SPR (Biacore) off-rate screen, periplasmic extract over human GPC3 on CM5; R0 38.8. The procedure:
(§1) Human GPC3 protein in acetate buffer, pH 5.0, was immobilized in a sensor chip CM5 (GE Healthcare; Cat. Nr. BR-1005-30; Lot. Nr.10245232) and successful immobilization was confirmed by using a commercially available human GPC3 antibody (R&D cat. nr. MAB2119) and the anti-GPC3-VHH-Fc (both at 10 μg/mL). Periplasmic extracts from the MP were diluted in Biacore Buffer (0.01 M HEPES pH 7.4, 0.15 M NaCl, 3 mM EDTA, 0.05% P20) and injected over 2 minutes at 30 μL/min. 10 μl of 10 mM NaOH/1M NaCl were injected between samples and off-rates were measured over 5 minutes. Off-rate ([…]) were calculated using BIACORE software 1:1 interaction Langmuir binding model.

The target in test [6] is T2, human GPC3 recombinant protein. The experiment in a line: SPR (Biacore) off-rate screen, periplasmic extract over human GPC3 on CM5; R0 40.0. The procedure: as §1
Test [7] shares this target. The experiment in a line: SPR (Biacore), summary table; Chi2 0.465; Profile 'Very good'; FIG. 18 prints 6.01E-09.
For test [8] the target is unchanged. The test can be described thus: SPR (Biacore), VHH-His over human GPC3 on CM5; fit 197.5 - 17.34 nM; Rmax 10.9 RU; Chi2 0.465. The procedure: (§2) Affinities of the 19 VHH-His tagged domains were then determined by BiaCore assay. Human GPC3 protein (Sino biological cat. nr. 10088-H08H-500) was immobilized on CM5 sensor chip (GE Healthcare) as antigen. Purified VHH-His tagged domains were diluted in BiaCore buffer (0.01 M HEPES pH 7.4, 0.15 M NaCl, 3 mM EDTA, 0.05% P20) to 500 nM and injected over 2 minutes at […] followed by a half dilution series to 7.8 nM. 10 μl of 10 mM NaOH/1M NaCl were injected between samples and then off-rate wash was 5 minutes.

Test [9] shares this target. The test can be described thus: SPR (Biacore) off-rate screen, periplasmic extract over human GPC3 on CM5; R0 26.5. As for the experimental part:
as §1

Test [10] has the same target. The test can be described thus: SPR (Biacore) off-rate screen, periplasmic extract over human GPC3 on CM5; R0 36.0. The procedure:
as §1

The target is the same in test [11]. The experiment in a line: SPR (Biacore) off-rate screen, periplasmic extract over human GPC3 on CM5; R0 48.2. As for the experimental part:
as §1

For test [12] the target is unchanged. The test can be described thus: SPR (Biacore), summary table; Chi2 0.466; Profile 'Good'.
The target is the same in test [13]. The test can be described thus: SPR (Biacore) off-rate screen, periplasmic extract over human GPC3 on CM5; R0 46.9. As for the experimental part: as §1
The target is the same in test [14]. The test can be described thus: SPR (Biacore), VHH-His over human GPC3 on CM5; fit 197.5 - 17.34 nM; Rmax 10.9 RU; Chi2 0.466. As for the experimental part: as §2
Test [15] shares this target. The experiment in a line: SPR (Biacore), summary table; Chi2 0.266; Profile 'Good'. As for the experimental part: as §2
Test [16] shares this target. The test can be described thus: SPR (Biacore) off-rate screen, periplasmic extract over human GPC3 on CM5; R0 39.2. As for the experimental part: as §1
Test [17] has the same target. The test can be described thus: SPR (Biacore), VHH-His over human GPC3 on CM5; fit 131.7 - 17.34 nM; Rmax 9.97 RU; Chi2 0.266. As for the experimental part:
as §2

For test [18], the target named is T1, human GPC3 on HepG2 cells. The test can be described thus: FACS, phage-displayed clone on HepG2, well F3; same clone on A-431 (no GPC3): 1412.11.
The target in test [19] is T1, human GPC3 on HepG2 cells. The test can be described thus: FACS, periplasmic extract 1:5 + anti-c-myc + GAM-APC on HepG2, well F3; same on A-431: 965.7.
In test [20] the target is T1, human GPC3 on HepG2 cells. The experiment in a line: FACS, phage-displayed clone on HepG2, well F3; same clone on A-431 (no GPC3): 1.39%.
For test [21], the target named is T1, human GPC3 on HepG2 cells. The experiment in a line: FACS, periplasmic extract 1:5 + anti-c-myc + GAM-APC on HepG2, well F3; same on A-431: 0.18%.
Test [22] has as its target T2, human GPC3 recombinant protein. The test can be described thus: SPR (Biacore) off-rate screen, periplasmic extract over human GPC3 on CM5; R0 34.4. The procedure:
as §1

The target is the same in test [23]. The test can be described thus: SPR (Biacore) off-rate screen, periplasmic extract over human GPC3 on CM5; R0 29.7. As for the experimental part:
as §1

Test [24] deals with T1, human GPC3 on HepG2 cells. The test can be described thus: FACS, phage-displayed clone on HepG2. The procedure: Binding of phage with surface expressed VHH domains to HepG2 cells was assessed using FACS. […] The cell suspension was distributed throughout at 96-well, U-bottom plate (85 μL/well) and incubated with phage (15 μL) on ice for 60 minutes with shaking.
Test [25] addresses T1, human GPC3 on HepG2 cells. The experiment in a line: FACS, periplasmic extract 1:5 + anti-c-myc + GAM-APC on HepG2, well E4; same on A-431: 760.97.
The target in test [26] is T1, human GPC3 on HepG2 cells. The experiment in a line: FACS, phage-displayed clone on HepG2, well E4; same clone on A-431 (no GPC3): 1163.66.
Test [27] deals with T1, human GPC3 on HepG2 cells. The test can be described thus: FACS, periplasmic extract 1:5 + anti-c-myc + GAM-APC on HepG2, well E4; same on A-431: 0.25%.
The target in test [28] is T2, human GPC3 recombinant protein. The experiment in a line: SPR (Biacore) off-rate screen, periplasmic extract over human GPC3 on CM5; R0 61.6. The procedure:
as §1

For test [29] the target is unchanged. The test can be described thus: SPR (Biacore), VHH-His over human GPC3 on CM5; fit 62.5 - 7.8 nM; Rmax 22.5 RU; Chi2 0.207. As for the experimental part:
as §2

Test [30] shares this target. The test can be described thus: SPR (Biacore), summary table; Chi2 0.207; Profile 'Very good'. As for the experimental part: as §2
The target in test [31] is T1, human GPC3 on HepG2 cells. The test can be described thus: FACS, phage-displayed clone on HepG2, well E4; same clone on A-431 (no GPC3): 2.08%.

Substitutions are numbered along the chain they refer to.

T1 sequence (P51654 25-554 limits assumed): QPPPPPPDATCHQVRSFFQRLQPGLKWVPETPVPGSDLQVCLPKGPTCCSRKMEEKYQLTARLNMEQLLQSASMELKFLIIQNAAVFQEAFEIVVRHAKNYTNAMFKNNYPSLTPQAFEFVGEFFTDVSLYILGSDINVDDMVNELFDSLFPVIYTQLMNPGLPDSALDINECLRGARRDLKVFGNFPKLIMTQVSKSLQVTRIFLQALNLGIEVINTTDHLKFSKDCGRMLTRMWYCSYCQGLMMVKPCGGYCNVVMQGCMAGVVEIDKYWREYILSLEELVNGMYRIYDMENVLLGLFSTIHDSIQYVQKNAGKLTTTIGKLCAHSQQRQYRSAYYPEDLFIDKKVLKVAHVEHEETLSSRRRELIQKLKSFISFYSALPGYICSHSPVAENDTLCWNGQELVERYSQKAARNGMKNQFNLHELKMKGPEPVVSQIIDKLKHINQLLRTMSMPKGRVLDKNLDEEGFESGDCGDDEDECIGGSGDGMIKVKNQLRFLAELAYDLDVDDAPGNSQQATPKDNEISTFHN

B1: VH29 (VHH)
VHH: QVQLVESGGGLVQPGGSLRLSCAASGFTFSSYAMSWVRQAPGKEPEWVSSISGGGSSTYYADSLKGRFTISRDNSKNTLYLQMNSLRAEDTAVYYCSRDPRFGEPPFDYWGQGTLVTVSS
notes: also called VHH29
For the molecule B1, the Mean FL4-A in test [1] turned out to be 931. The % of Binding worked out at 1.43% in [2] and 35.7% in [4]. In addition, the Mean FL2-A in test [3] is 11100. For the same molecule, the off-rate constant (koff) in test [5] stood at 0.00493 s⁻¹.

B2: VH27 (VHH)
VHH: B1 VHH with Q1E
notes: also called VHH27
For B2, in test [6], the dissociation rate constant (koff) is 0.00387 s⁻¹.

B3: anti-GPC3 VHH-His tagged domain VHH1 (VHH)
VHH: B1 VHH with Q1E, S56T, K65E, R98K, L115T
notes: Produced from a mammalian expression vector as a His fusion; not shown: His tag
In the case of B3, the Kd in [7] was 4.29 nM. In test [8], the Ka is 1.66e+08 M⁻¹, the Kd is 6.01 nM, the koff was 0.00167 s⁻¹ and the kon is 278000 M⁻¹ s⁻¹. Besides, the off-rate constant (koff) in test [9] is 0.00247 s⁻¹.

B4: VH36 (VHH)
VHH: B1 VHH with L115T
notes: also called VHH36
In the case of B4, the koff in test [10] is 0.00566 s⁻¹.

B5: VH21 (VHH)
VHH: B1 VHH with V48I, G54S, R98K
notes: also called VHH21
With B5, in [11], the koff came out at 0.00269 s⁻¹.

B6: anti-GPC3 VHH-His tagged domain VHH7 (VHH)
VHH: B1 VHH with Q1E, L115T
notes: as for B3
Regarding B6, in test [12], the Kd was 6.84 nM. The off-rate constant (koff) in [13] came to 0.00457 s⁻¹. For the same molecule, in test [14], the Ka was found to be 1.46e+08 M⁻¹, the dissociation constant (Kd) amounted to 6.84 nM, the koff amounted to 0.00262 s⁻¹ and the on-rate (kon) was found to be 383000 M⁻¹ s⁻¹.

B7: anti-GPC3 VHH-His tagged domain VHH9 (VHH)
VHH: B1 VHH with F107L, L115T
notes: as for B3
Take B7: the Kd in test [15] amounted to 6.15 nM. In addition, the koff in [16] was 0.0062 s⁻¹. Moreover, in test [17], the Ka is 1.63e+08 M⁻¹, the equilibrium dissociation constant (Kd) stood at 6.15 nM, the koff is 0.00326 s⁻¹ and the kon was 530000 M⁻¹ s⁻¹. In addition, the Mean FL2-A in test [18] worked out at 130000. Further, the Mean FL4-A in test [19] came out at 1830. For the same molecule, the % of Binding in test [20] was 89%. Besides, in test [21], the % of Binding is 0.52%.

B8: VH26 (VHH)
VHH: B1 VHH with Q1E, V48I, G54S, R98K
notes: also called VHH26
For the molecule B8, the koff in test [22] amounted to 0.00379 s⁻¹.

B9: VH32 (VHH)
VHH: QVQLVESGGGLVQPGGSLRLSCAASGFTFSSFAMSWVRQAPGKGLEWVSAISGSGGRTHYADSVKGRFTISRDNSKNTLYLQMNSLRAEDTAVYYCAKEALTGVFDYWGQGTLVTVSS
notes: also called VHH32
On to B9, for which the off-rate constant (koff) in [23] was 0.0948 s⁻¹. Further, the binding result in [24] was “no binding”.

B10: anti-GPC3 VHH-His tagged domain VHH3 (VHH)
VHH: EVQLVESGGGVVQPGRSLRLSCAASGFTFSNYLMQWVRQAPGKGLVWLSNINSDGSSTDYADSVKGRFTISRDNAKNTLYLQMNSLRAEDTAVYYCRVGAFDYWGQGTLVTVSS
notes: as for B3
Turning to B10, the Mean FL4-A in [25] is 796. This molecule also showed a Mean FL2-A in [26] of 18600. Further, the figures for the % of Binding in test [27] and in test [31] were 0.27% and 60.1%, respectively. Moreover, the results for the koff in test [28] and in test [29] were 0.00154 s⁻¹ and 0.00141 s⁻¹, respectively. Besides, the Ka in [29] was determined as 3.09e+08 M⁻¹. Also, the dissociation constant (Kd) in test [29] and in test [30] was 3.23 nM throughout. For the same molecule, the kon in test [29] was 435000 M⁻¹ s⁻¹.

These data come from patent US20260191905A1 (MODERNATX, published 2026).
